Data set [1] concerns the molecule itself. Put plainly: SDS-PAGE and Western blot.
The data set “SEC” deals with the molecule itself. Put plainly: SEC.

B1: C394S mutant of full length human adenosine A2a receptor with a C-terminal 10 histidine tag (receptor, UniProt P29274 1-412, looked up)
chain: MPIMGSSVYITVELAIAVLAILGNVLVCWAVWLNSNLQNVTNYFVVSLAAADIAVGVLAIPFAITISTGFCAACHGCLFIACFVLVLTQSSIFSLLAIAIDRYIAIRIPLRYNGLVTGTRAKGIIAICWVLSFAIGLTPMLGWNNCGQPKEGKNHSQGCGEGQVACLFEDVVPMNYMVYFNFFACVLVPLLLMLGVYLRIFLAARRQLKQMESQPLPGERARSTLQKEVHAAKSLAIIVGLFALCWLPLHIINCFTFFCPDCSHAPLWLMYLAIVLSHTNSVVNPFIYAYRIREFRQTFRKIIRSHVLRQQEPFKAAGTSARVLAAHGSDGEQVSLRLNGHPPGVWANGSAPHPERRPNGYALGLVSGGSAQESQGNTGLPDVELLSHELKGVSPEPPGLDDPLAQDGAGVS
In the case of B1, the binding result in data set [1] is listed as “binds”.

B2: spin labeled wild type full length human adenosine A2a receptor with a C-terminal 10 histidine tag (receptor, UniProt P29274 1-412, looked up)
chain: MPIMGSSVYITVELAIAVLAILGNVLVCWAVWLNSNLQNVTNYFVVSLAAADIAVGVLAIPFAITISTGFCAACHGCLFIACFVLVLTQSSIFSLLAIAIDRYIAIRIPLRYNGLVTGTRAKGIIAICWVLSFAIGLTPMLGWNNCGQPKEGKNHSQGCGEGQVACLFEDVVPMNYMVYFNFFACVLVPLLLMLGVYLRIFLAARRQLKQMESQPLPGERARSTLQKEVHAAKSLAIIVGLFALCWLPLHIINCFTFFCPDCSHAPLWLMYLAIVLSHTNSVVNPFIYAYRIREFRQTFRKIIRSHVLRQQEPFKAAGTSARVLAAHGSDGEQVSLRLNGHPPGVWANGSAPHPERRPNGYALGLVSGGSAQESQGNTGLPDVELLSHELKGVCPEPPGLDDPLAQDGAGVS
modifications: nitroxide radical MTSL spin label attached to free cysteines (thiol of C394)
Take B2: the binding result in “SEC” was “binds”.

(Values after article PMC5039092 (FEBS letters, 2016).)
